Results taken from publication PMC8880779.

Key:
[1] = target: Human Aβ(1–42)-HiLyte™-Fluor555 (human) (UniProt P05067); test: other fluorescence titration; reversion of the fluorescence increase: 100 nM non-labelled Aβ(1–42) added after complex formation of 10 nM Aβ(1–42) HiLyte Fluor555 with 5 nM CaM; same buffer, 24–25 °C
[2] = target: Human Aβ(1–42)-HiLyte™-Fluor555 (human) (UniProt P05067); test: other fluorescence titration; kinetics of the fluorescence increase of 10 nM Aβ(1–42) HiLyte Fluor555 after addition of 10 nM CaM (1:1 molar ratio); 50 mM Hepes, 100 mM KCl, 50 µM CaCl2, pH 7.05; 24–25 °C
[3] = target: Human Aβ(1–42)-HiLyte™-Fluor555 (human) (UniProt P05067); test: other fluorescence titration; kinetics of the fluorescence increase of 10 nM Aβ(1–42) HiLyte Fluor555 after addition of 5 nM CaM (series 2.5, 5, 10 nM for the maximum change); 50 mM Hepes, 100 mM KCl, 50 µM CaCl2, pH 7.05; 24–25 °C; excitation 520 nm, emission 567 nm

A time needed for the decay to half the increase of fluorescence [1] of 900 s, a half-time of complex formation (10 nM CaM) [2] of 38 s and a rate constant of the kinetic process of complex formation (10 nM CaM) [2] of 0.018 s⁻¹ were found for “calmodulin (CaM) (from UniProt P62157 1-149) (natural protein; other documents disagree on this pair)” in this work. For the same substance, the stoichiometry N (Aβ(1–42) per CaM) [3] was 2.
